This is an account of results in patent US6849727.

No end group written: not given here.

The target of experiment [1] is rat spinal cord membrane receptor. The experiment can be described thus: competition binding, rat spinal cord membranes (SEM 0; may be a floor value).
In experiment [2] the target is rat neuropeptide FF receptor (NPFF1) (rat) (UniProt Q9EP86). The experiment can be described thus: competition vs [125I]D-Tyr-NPFF, COS-7 membranes (SEM 0; may be a floor value).
Experiment [3] concerns the target rat spinal cord membrane receptor. The experiment can be described thus: competition binding, rat spinal cord membranes.

Sequence of rat neuropeptide FF receptor (NPFF1) (rat) (Q9EP86 whole entry): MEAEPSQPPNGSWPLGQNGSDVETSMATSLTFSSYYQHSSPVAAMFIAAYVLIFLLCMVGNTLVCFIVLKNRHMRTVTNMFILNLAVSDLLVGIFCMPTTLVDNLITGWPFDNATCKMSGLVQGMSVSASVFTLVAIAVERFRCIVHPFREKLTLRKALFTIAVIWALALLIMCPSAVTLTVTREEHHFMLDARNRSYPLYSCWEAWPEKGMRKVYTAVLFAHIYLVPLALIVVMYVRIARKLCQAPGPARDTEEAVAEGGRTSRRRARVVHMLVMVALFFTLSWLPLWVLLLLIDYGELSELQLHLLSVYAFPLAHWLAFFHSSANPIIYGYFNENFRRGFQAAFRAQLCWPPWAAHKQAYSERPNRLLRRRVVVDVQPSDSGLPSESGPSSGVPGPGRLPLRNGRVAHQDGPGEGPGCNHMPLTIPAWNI

Regarding Met5-Arg6-Phe7-Enk-OH (peptide), the pKi in experiment [1] and in experiment [2] was 5 each time.

Regarding Tyr-MIF-1 (peptide), the pKi in experiment [2] turned out to be 5.

With rat NPFF (FLFQPQRF-NH2) (peptide), the pKi in experiment [3] worked out at 9.05.

Molecule PDVDHVFLRF-NH2 [Schisto(FLRFNH2) (Pro-Asp-Val-Asp-His-Val-Phe-Leu-Arg-Phe-amide)] showed a pKi in experiment [3] of 6.39.

H-KNQFIRF-NH2 [AF-1 (FMRF-like peptide H2N-Lys-Asn-Gln-Phe-Ile-Arg-Phe-NH2)]: in experiment [3], the negative logarithm of the Ki (pKi) was 7.56.

Turning to H-KHQYLRF-NH2 [AF-2 (H-Lys-His-Gln-Tyr-Leu-Arg-Phe-NH2)], the pKi in experiment [3] came out at 7.96.

In the case of AGEGLSSPFWSLAAPQRF-NH2 [rat A-18-F-amide (…-NH2)], the pKi in experiment [3] was 9.
